# Experiment: soluble on expression in E. coli; label from the status in PepcDB or PDB records
row,Sequence,soluble on expression in E. coli
1,MADIVQLKENGVVKYMKTHADAIDGVEGKLVKAVGNETVLGTKNFQDGIQIGGKSVSVNAKPTYEVVKDYWDGTGAYLTESQSVTISNSSNVDEIVLIFSRYNDNGGGIVHSIPVTPNITKLKYELPAVAWVGSASTDPTIAYKKISISKSGTSLVITGDTANTLNEANKKIVFREIGVMRRK,not soluble
2,MIAITGASGQLGRLVIAQLLEKVPASDIVALVRDVNKVADLSAKGVQVKAADYNQPEALAFALQGVDKVLLISSSEVGQRAAQHRNVIEAAVKAGVKLVAYTSLLHADKSPLALAEEHRQTEALLKDSGLPHVLLRNGWYTENYAASIPAALEHGVFIGSAGEGKITSATREDFAAAAVAVLTQEGQAGKVYELAGDEPYTLVELAAEISKQSGKSIGYQNLSGAEFTAALVSAGLPDVFAQIIADSDVGASKGGLFDGGKHLSQLIGRPTTPLSAVVKATLKLEHHHHHH,not soluble
3,MGSDKIHHHHHHMLSVNRIVISAAGGGKTTRVVDQALACEQGQGATALITYTRNNVREIQLKAYERTRTIPSHVEVISWYSFLLRELARPYRSAMHASRVDGIHWVEGKSVPYIPEARTSGHYFFDGSRIYSDKIAKFVCECDRRSGGAIMRRLKQRFRHIIIDEIQDMAGYDLDLLELILKAGVPVTFVGDHRQATFATNNASKNKVFSGPAIIKKFELWKKQGLVEIEYETHTHRCNQTIADLGDGFFPNEPKTVSRNDKVTGHDGVFLVSSADVGEYMKRFAPQVLRYSAATNCDLDEAMNFGESKGLTFERVLIYPHGPARKWLASGDIRHVEKSLTKMYVAVTRARYSVAFVHDGKICSVAATKWVPG,not soluble
4,MDMKRRIHLELRNRTPAAVRELVLDNCKSNDGKIEGLTAEFVNLEFLSLINVGLISVSNLPKLPKLKKLELSENRIFGGLDMLAEKLPNLTHLNLSGNKLKDISTLEPLKKLECLKSLDLFNCEVTNLNDYRESVFKLLPQLTYLDGYDREDQEAPDSDAEVDGVDEEEEDEEGEDEEDEDDEDGEEEEFDEEDDEDEDVEGDEDDDEVSEEEEEFGLDEEDEDEDEDEEEEEGGKGEKRKRETDDEGEDD,soluble
5,MSGAAADGIDDRDIPKQEFLDAAFNGDIDKIDGLLRDKKVHIDSVDDDQVTALHIAAAMGNNKLVVRLLDYGANIHAVNHLGMTAYHYAAREGKLAVLDTLMQRGASKNQTTALGVTALTLACAGGHADVVRRLIRISNETPRSKQSLAPTPLIVATCSKSPQICSYLADFRVNLDESMKNLGNLTALSMAIVCTPGVYMVRTLIDLGASVNKKGLGDKTAEELAIMLNRKDLIHFFNEKKSYRSRMNADSDVRKEIKNDHIIERELGAPAQNGVSPLMYATTVRSINSAKHLVLHRDSDVNMRDNLHITSLQIASLLRVDDIIPLLLQRRADVTVVNKYGSTAYDLFLLSCDFLEPGQLRGQLHCHRPIDSKSNLNSSSSNIYKALRSQGILTKVGSQIGINSAKIELIEPKHWLAAKTKYQPAKLRNNYKFASVEDILKSCKVAKRPETNECDNETEAIREYMEECQSFAVFCFSDFYGERENNKATIPDYYDKAQDNAKRYAYLRMDGLDKKNSGRQENVSKLIPVRPRKDSIEREYRKPRNIALVDSPSQSQMRTTPRMLKKRDTDYFSAQAGRARASSTSLQVPTVTVTRQRHVTSPVIEDMIWNHFVRRGKNELMRVLQAAEIDKHSFFSLQQKDLEAMNSYTPENMKLIEDIQTAILSRSL,not soluble
6,MEQYHKIVLTGSNAETMLIKNIEPVAVKFINNYKGFFYVFKYSKDFPIIDVYINNKIVTENQLNKILQNSGAKYKIYKNSIFNETQGNFGMLGDKYLAEFFKKTNEISLNILNQNFESYNKKIEFALEIMLISAHYNYDSIKKGYLSYASHVNGFFTRWKDPNKIRDIFHKNYLNNKEYLESKVSEIIDNNNRSSLSELSDIITEMKKEMTTDIEKGNLHVFNIELLQKPGERDFLEKSQFHKTILNNPDFSNFMNKDINFLGSRLITVFTYLLIRNLGIQNKDRYLLCYYIYKIIEEKYNIDTLELIRDFGKGRDNNVEDLQRY,not soluble
7,MYYVGIMSGTSLDGIDAVLVDFSGPSFSLLHTCYIPYDQSLRAALLGLNQAGENELHRAAILSNQLSGWYAQAVGRLLEKSGIDPGEIIAVGCHGQTIRHCPQPENGYSIQLVNGALLAELTGMTVVTDFRSRDIAAGGQGAPLVPAFHHEMFAHRDIHRLIINIGGITNITSLPVSGGVNGFDCGPGNMLMDAWCLKHTGMTYDHNGSWAESGRVINPLLENLLNFPYFSLPPPKSTGREMFSLDWLQPCLRGDEATQDVQSTLLQLTVRTITDSVETYYPAVRELYLCGGGAHNGTLVTRLQQQLPGRRINLTDALGIEADWVEACAFAWLARQSIERAPGNLPAVTGATGSRTLGAIYPA,not soluble
8,LTSGNINIGNLKVGNDYPMRVLGEIVHVPWLSKEELEEKVNYYVESGADMIDLGMVSNEDYSKDLKQIIKTVRDITDKPVSVDTLNTKELIEAVNLDVDMILSVDSGNFDELLPYLKEKNTVSVVLPTNYKTNEVPKKISEKIQNMEKILEKFKENDLLAVADPILEPINNSGCNFTESVIACYEFKKRNNIPMFFGIGNVTELFDVDSNGVNASIAAIGQEIGGNILFTPEASKKCKFSIKELKTASKMLFLAKKRNSLP,not soluble
9,MGSDKIHHHHHHMEKEFRILNIVSAKIWGGGEQYVYDVSKALGLRGCTMFTAVNKNDELMRRRFSEVSSVFTTRLHTFNGLFSLYALTRFIRENHISHLMIHTGKIAALSVLLKKLTGVRLIFVKHNVVANKTDFYHRLIQKNTDRFICVSRLVYDVQTADNPFKEKYRIVHNGIDTGRFPPSQEKPDSRFFTVAYAGRISPEKGLENLIEACVILHRKYPQIRLKLAGHGHPDYMCRLKRGVSASGAEPFVSFEGFTEKLASFYRQSDVVVLPSLVPEAFGLSLCEAMYCRTAVISNTLGAQKEIIEHHQSGILLDRLTPESLADEIERLVLNPEAKNALATAGHQCVAARFTINHTADKLLDAI,not soluble
10,MTILFISDLHLSPLRPDITDCFIDFMQNEAIHAEKLYVLGDLFEFWIGDDDNSPFNVSIKNEFKALTEKGVKCYFIQGNRDFLLNKRFCKETGVELLDDHTVIELDGEKVLIMHGDTLCIDDIKYQEFRAKVHKPWLQWVFNRIPLFIRQRIVKNVQDKIKEKKQTKTLCIMDVTQSEVERVMQEEGVQRLIHGHTHRPDTHTFMSNNKEMTRIVLGDWYSQGSILEYSDKIYSLHKKEFK,not soluble
11,MSVTAPSARPAPDHHAQFLQLLDTSLTQNAFIKLVLAKHVGPEADLQRLIIKQLTVKEQPCLSFVYRYKTRDITKNFSLDEGIAAIAELLPAAFKNAHLLTLTDEVQLEYSKKGKSSLFKGKPQTQRDAPSAEHNREKNRFLDLSRPFLADLGVTNKQHELIPAMSRKWKQINKFIEVFSHALGSSPIKLDQPVRVADFGSGKGYLTFAIHDYLRNTLKAEGEVTGVELREDMVTLCNAAAQRLEHPGLVFKCGDVRSVAPSQLEVMIALHACDIATDYAIHTGIRSGAAIIMCSPCCHKQIRQQIQSPQLLKPMLQYGLHLGQQAEMVTDSLRALFLEACGYETKVFEFISLEHTNKNKMILAVKRAEPQDPSQLLARIEELKAFYQISEHCLETLLKADGYLG,soluble
12,MGSDKIHHHHHHMHFVITGSLGHIGKPLAIQLSKEGHAVTVVSSNTERIKEIESIGAKAAIGSVEDPGFLTETFRGADAVFTMVPPNMNAADWKAWIAGIGKNYVAAIKESGVKHVVNLSSIGAHMVDKCGPVSGLSQVELAMDEMKGVNVHHLRAGYFYTNFLNSIGQIKNQGIITGNYMPDLKMVLVHPADIADIAARALKDESYLGRGFSYIASDEKTPAEIVTILGKATGRMDLKWVERTDKEEYDDLIAIGLPEEIAKNYTEMGAALRSGDMNADYFRNRPVMAGWRTFDSFMPEFIATYNA,not soluble
13,MGSDKIHHHHHHMQPNPTLDQLQIFVAVADSGSFSAAGRKLNRAQSVISYGIANLEAQLGLKLFEREGTREPQLTEIGRSMLEDARRMIGVLQRMRSRVDGHHHGLEAEVALSVDAALPSPVLVRVLKAFEAQFPTVMLRLHIGSLGLIPDHVVSGQADLGIGGLLGDVDVHLVRIGFMSIVLAAAPSHPLALLPKPLAIEDVREHTQLVVTDQSERTKGRDFGVFAYRTWRLTDMRTKHMLMREGLGWGGLPRWLIADDLVNGRLVELDLEPFSEVKSPMFAMHRNDSSPKPAAAWLIERFKRGLGCFNEFEPGEVPEDEPETIRQSAP,not soluble

# Source: the DeepSol protein solubility set
